Target: T1, 重组人GPC3蛋白 (human, UniProt P51654 25-559, limits assumed)
T1 construct: also called 磷脂酰肌醇聚糖蛋白3
Experiment: SPR, Biacore X100; antibody captured on goat anti-human Fc gamma CM5 chip, human GPC3 10nM-80nM as analyte, 1:1 Langmuir model

T1 sequence (P51654 25-559 limits assumed): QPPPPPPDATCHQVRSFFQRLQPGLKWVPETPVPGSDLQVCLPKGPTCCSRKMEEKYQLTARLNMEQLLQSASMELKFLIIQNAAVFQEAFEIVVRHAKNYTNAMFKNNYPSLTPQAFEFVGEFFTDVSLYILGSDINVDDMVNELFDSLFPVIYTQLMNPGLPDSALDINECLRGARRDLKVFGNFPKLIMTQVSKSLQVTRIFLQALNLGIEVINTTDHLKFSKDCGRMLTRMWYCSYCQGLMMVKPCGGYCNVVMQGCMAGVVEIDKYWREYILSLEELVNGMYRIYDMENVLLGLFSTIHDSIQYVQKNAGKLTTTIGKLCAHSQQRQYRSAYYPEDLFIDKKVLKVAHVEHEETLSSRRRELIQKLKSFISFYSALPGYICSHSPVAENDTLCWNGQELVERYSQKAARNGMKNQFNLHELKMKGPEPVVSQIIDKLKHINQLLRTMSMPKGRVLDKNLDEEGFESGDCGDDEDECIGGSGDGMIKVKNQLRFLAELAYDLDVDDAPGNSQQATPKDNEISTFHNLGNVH

B1: 抗体GPC3-6 (antibody, human IgG1, lambda, V domains shown)
VH: QVHLVQSGAEVQKPGSSVKVSCKASGGTFSSYGINWVRQAPGQGLEWMGWISAYNGNTNYAQKLQGRVTMTTDTSTSTAYMELRSLRSDDTAVYYCARGSGLLPRIGGYWGKGTMVTVSS
VL: LSSELTQDPAVSVPLGQTVRITCRGDSLRTFYATWYQQKPGQAPVRVIYRKNNRPSGIPDRFSGSSSGNTASLTITGAQAEDEADYYCNSRDSSGDHLVFGTGTKLTVLG
notes: Selected from a phage display antibody library against GPC3; In SPR it was captured through goat anti-human Fc gamma; also called 人抗GPC3抗体GPC3-6; 抗GPC3抗体
Kd: 3.77 nM
koff: 0.000719 s⁻¹
kon: 190000 M⁻¹ s⁻¹

From patent CN110577600A (SHANGHAI INST MATERIA MEDICA CAS; NANJING LEADS BIOLABS …, dated 2019)
